Assay results from patent US20110189093A1, “PROSTATE SPECIFIC MEMBRANE ANTIGEN ANTIBODIES AND ANTIGEN BINDING FRAGMENTS” (PROSCAN RX PHARMA, priority 2008, published 2011).

What was measured:
[1] = test system: 22 different tumor types; assay: Immunohistochemistry on tissue microarrays of tumor types
Experimental: (§1) Tissue and tumor specificity of mAbs: to compare the tissue and tumor specificity of monoclonal antibodies of the present invention, tissue microarrays of 30 different normal tissues (Biochain) and 22 different tumor types (Dako) including prostate cancer was used in order to characterize their recognition specificity. The immunohistochemistry was performed on antigen retrieved, formalin fixed, paraffin embedded material. Anti-PSMA mAbs J591 (ATCC HB-12126) and 7E11 (ATCC HB-10494) were used as references. Formalin fixed paraffin embedded […] sections were subjected to antigen retrieval in basic antigen retrieval solution (BD Pharmingen pH 9.5) in a microwavable pressure cooker for 10 min, cooled and equilibrated to 0.01M phosphate buffered saline (PBS) pH 7.4. Staining was carried out at room temperature in a humidified chamber. Endogenous peroxidases were inactivated with a 1% solution of H2O2 for 20 min, blocked with 5% normal goat serum (NGS) for 30 min and incubated with primary monoclonal antibodies (mAbs) diluted in PBS; 2% NGS overnight. Antibody binding to tissue sections was detected by the sequential addition of the following reagents followed by washing in PBS: goat anti-mouse IgG (H+L) (ICN) secondary antibody diluted 1:100 in PBS; 2% NGS for 1 hr, a complex of a bi-specific mAb mouse anti-peroxidase and horse radish peroxidase for 1 hr, and 3,3-diaminobenzidene tetrahydrochloride (DAB) at 0.6 mg/ml in PBS; 2% NGS; 0.01% H2O2 as chromogen. The primary antibodies were purified mAbs used at concentrations optimized in dilution experiments. […] Mouse IgG mAb was used at a concentration of 0.2 μg/ml and served as a negative control for the primary antibodies. Tissue samples included organ confined and metastatic prostate cancer, HGPIN and normal prostate tissues drawn from radical prostatectomies, transurethral resections and autopsy material.

[2] = test system: 30 different normal tissues; assay: Immunohistochemistry on tissue microarrays of normal tissues
Experimental: as §1

B1: PSf42.1: anti-PSMA monoclonal antibody; light chain variable SEQ ID NO:45, heavy chain variable SEQ ID NO:46 (antibody, V domains shown)
VH: EVQLEESGAEFVRPGAAVKLSCTVSGLNIKDSYLHWVKQRPEQGLEWIGGIDPANGDVEYDPKFQGKAAITADTSSNTAYLRLSSLTSEDTAVYYCAPFPYWGAGTTVTVS
VL: DILMTQSPLTLSVIIGQPASFSCKSSHSLLHRDGRTYLNWLLQRPGQSPQRLIYLVSKLDSGVPDRFTGSGSGTDFTLKISRVEAEDLGVYYCWQGTHFPRTFGGGTKLEIKRA
- No. of positive cases/total no. of cases studied ([1]; Astrocytoma): 0/2
- No. of positive cases/total no. of cases studied ([1]; Breast carcinoma): 0/2
- No. of positive cases/total no. of cases studied ([1]; Carcinoid): 0/3
- No. of positive cases/total no. of cases studied ([1]; Colonic adenocarcinoma): 0/2
- No. of positive cases/total no. of cases studied ([1]; Epithelioid sarcoma): 0/1
- No. of positive cases/total no. of cases studied ([1]; Ewing's sarcoma): 0/1
- No. of positive cases/total no. of cases studied ([1]; Gastric carcinoma): 0/2
- No. of positive cases/total no. of cases studied ([1]; Hepatocellular carcinoma): 0/2
- No. of positive cases/total no. of cases studied ([1]; Hodgkin's lymphoma): 1/13
- No. of positive cases/total no. of cases studied ([1]; Leiomyoma): 0/2
- No. of positive cases/total no. of cases studied ([1]; Lung adeno carcinoma): 0/2
- No. of positive cases/total no. of cases studied ([1]; Lymphoma): 0/3
- No. of positive cases/total no. of cases studied ([1]; Malignant fibrous histiocytoma): 0/1
- No. of positive cases/total no. of cases studied ([1]; Melanoma): 0/3
- No. of positive cases/total no. of cases studied ([1]; Mesothelioma): 0/2
- No. of positive cases/total no. of cases studied ([1]; Ovarian carcinoma): 0/2
- No. of positive cases/total no. of cases studied ([1]; Pancreatic carcinoma): 0/2
- No. of positive cases/total no. of cases studied ([1]; Prostatic carcinoma): 1/1
- No. of positive cases/total no. of cases studied ([1]; Renal cell carcinoma): 0/2
- No. of positive cases/total no. of cases studied ([1]; Rhabdosarcoma): 0/2
- No. of positive cases/total no. of cases studied ([1]; Thyroid carcinoma): 0/2
- No. of positive cases/total no. of cases studied ([1]; Undifferentiated carcinoma): 0/4
- No. of positive cases/total no. of cases studied ([2]; Adipose): 0/2
- No. of positive cases/total no. of cases studied ([2]; Bladder): 0/2
- No. of positive cases/total no. of cases studied ([2]; Brain): 0/2
- No. of positive cases/total no. of cases studied ([2]; Breast): 0/2
- No. of positive cases/total no. of cases studied ([2]; Cerebullum): 0/2
- No. of positive cases/total no. of cases studied ([2]; Cervix): 0/2
- No. of positive cases/total no. of cases studied ([2]; Colon): 0/2
- No. of positive cases/total no. of cases studied ([2]; Diaphragm): 2/2
- No. of positive cases/total no. of cases studied ([2]; Duodenum): 0/2
- No. of positive cases/total no. of cases studied ([2]; Esophagus): 0/2
- No. of positive cases/total no. of cases studied ([2]; Gallbladder): 0/2
- No. of positive cases/total no. of cases studied ([2]; Heart): 0/2
- No. of positive cases/total no. of cases studied ([2]; Ileum): 0/2
- No. of positive cases/total no. of cases studied ([2]; Jejenum): 0/2
- No. of positive cases/total no. of cases studied ([2]; Kidney): 0/2
- No. of positive cases/total no. of cases studied ([2]; Liver): 0/2
- No. of positive cases/total no. of cases studied ([2]; Lung): 0/2
- No. of positive cases/total no. of cases studied ([2]; Ovary): 0/2
- No. of positive cases/total no. of cases studied ([2]; Pancreas): 0/2
- No. of positive cases/total no. of cases studied ([2]; Placenta): 0/4
- No. of positive cases/total no. of cases studied ([2]; Rectum): 0/2
- No. of positive cases/total no. of cases studied ([2]; Skeletal muscle): 2/2
- No. of positive cases/total no. of cases studied ([2]; Skin): 0/2
- No. of positive cases/total no. of cases studied ([2]; Spleen): 0/2
- No. of positive cases/total no. of cases studied ([2]; Stomach): 0/2
- No. of positive cases/total no. of cases studied ([2]; Testis): 0/2
- No. of positive cases/total no. of cases studied ([2]; Thymus): 0/2
- No. of positive cases/total no. of cases studied ([2]; Thyroid): 0/2
- No. of positive cases/total no. of cases studied ([2]; Tonsil): 0/2
- No. of positive cases/total no. of cases studied ([2]; Uterus): 0/2
